Measured values reported in patent publication US20230181729A1 (published 2023).

T1: PRAME (PRAME-004) peptide on HLA-A*02:01 (human)
T1 peptide: SLLQHLIGL

B1: R16P1E8 (TCR, V domains shown)
Valpha: QKEVEQDPGPLSVPEGAIVSLNCTYSNSAFQYFMWYRQYSRKGPELLMYTYSSGNKEDGRFTAQVDKSSKYISLFIRDSQPSDSATYLCAMSEAAGNKLTFGGGTRVLVKP
Vbeta: EAGVAQSPRYKIIEKRQSVAFWCNPISGHATLYWYQQILGQGPKLLIQFQNNGVVDDSQLPKDRFSAERLKGVDSTLKIQPAKLEDSAVYLCASSYTNQGEAFFGQGTRLTVV
B2: R17P1D7 (TCR, V domains shown)
Valpha: AQTVTQSQPEMSVQEAETVTLSCTYDTSESDYYLFWYKQPPSRQMILVIRQEAYKQQNATENRFSVNFQKAAKSFSLKISDSQLGDAAMYFCAYRWAQGGSEKLVFGKGTKLTVNP
Vbeta: EADIYQTPRYLVIGTGKKITLECSQTMGHDKMYWYQQDPGMELHLIHYSYGVNSTEKGDLSSESTVSRIRTEHFPLTLESARPSHTSQYLCATELWSSGGTGELFFGEGSRLTVL
B3: R17P1A9 (TCR, V domains shown)
Valpha: QKEVEQNSGPLSVPEGAIASLNCTYSDRGSQSFFWYRQYSGKSPELIMSIYSNGDKEDGRFTAQLNKASQYVSLLIRDSQPSDSATYLCAVLNQAGTALIFGKGTTLSVSS
Vbeta: DSGVTQTPKHLITATGQRVTLRCSPRSGDLSVYWYQQSLDQGLQFLIQYYNGEERAKGNILERFSAQQFPDLHSELNLSSLELGDSALYFCASSAETGPWLGNEQFFGPGTRLTVL

Target: T1, PRAME (PRAME-004) peptide on HLA-A*02:01
Experiment: cytokine release

Binding result, recognises:
B1
B2
B3
